The source of these data is article PMC12463560.

This experiment addresses PEDV-S1 protein fused with an Fc region (PEDV-S1-Fc protein) (porcine epidemic diarrhea virus | human). As to the kind of experiment: SDS-PAGE under reducing and non-reducing conditions; purified proteins loaded with (+) or without (-) beta-mercaptoethanol, Coomassie stained; shows disulfide-linked dimers only.

One may read the stoichiometry N as a count of units in the complex or per binding partner. Take “PEDV-S1 protein fused with an Fc region (PEDV-S1-Fc protein) (Fc fusion)”: the stoichiometry N turned out to be 2.
